Experimental data from patent US6468985B1, “Retinoblastoma protein-interacting zinc finger proteins” (The Burnham Institute, priority 1994, dated 2002).

What was measured:
[1] = tested on: Rb having a deletion within the pocket; assay: binding of GST-RIZ (245-573) to 35S-labeled Rb pocket deletion mutants, immunoprecipitation with anti-RIZ antiserum
Procedure: The 56 kD Rb fragment that binds to RIZ is a C-terminal fragment containing the Rb pocket binding region and a C-terminal extension. To further define the portion of 56 kD Rb that binds to RIZ, several Rb mutant polypeptides were tested for binding to RIZ. Mutant and full length Rb were cloned and in vitro transcribed/translated as described previously (Huang et al., supra, 1990). H209 is a point mutation resulting in a single amino acid change in Rb that was identified in the small cell lung cancer H209 cell line (American Type Culture Collection (ATCC) #HTB 172). The various Rb forms were tested for binding to glutathionine S-transferase (GST) fused to a fragment of RIZ from amino acid position 245-573 (GST-RIZ (245-573)). This RIZ fragment contains all of the E1A motifs related to binding Rb and was constructed by cloning a Stu I-Hpa I RIZ fragment (nucleotide 795-3068) into vector pBSK+ to make pBSK+SH. An Eco RI fragment was removed from pBSK+SH and ligated into pGEX-KG to produce vector pKG7.1S containing GST-RIZ (245-573).
The binding between purified GST-RIZ (245-573) and the above radiolabeled Rb wild-type and deletion mutants was determined by immunoprecipitation with an anti-RIZ antiserum followed by SDS-PAGE and autoradiography. […]

[2] = target: T1, RIZ (Rattus norvegicus, UniProt Q63755); assay: binding of anti-RIZ antiserum / anti-ce1 antibody to RIZ and RIZ truncation mutants; conditions: addition of the immunogen
T1 construct: made in house; host or cells: in vitro transcription/translation (rabbit reticulocyte lysate)
T1 sequence (Q63755 245-883): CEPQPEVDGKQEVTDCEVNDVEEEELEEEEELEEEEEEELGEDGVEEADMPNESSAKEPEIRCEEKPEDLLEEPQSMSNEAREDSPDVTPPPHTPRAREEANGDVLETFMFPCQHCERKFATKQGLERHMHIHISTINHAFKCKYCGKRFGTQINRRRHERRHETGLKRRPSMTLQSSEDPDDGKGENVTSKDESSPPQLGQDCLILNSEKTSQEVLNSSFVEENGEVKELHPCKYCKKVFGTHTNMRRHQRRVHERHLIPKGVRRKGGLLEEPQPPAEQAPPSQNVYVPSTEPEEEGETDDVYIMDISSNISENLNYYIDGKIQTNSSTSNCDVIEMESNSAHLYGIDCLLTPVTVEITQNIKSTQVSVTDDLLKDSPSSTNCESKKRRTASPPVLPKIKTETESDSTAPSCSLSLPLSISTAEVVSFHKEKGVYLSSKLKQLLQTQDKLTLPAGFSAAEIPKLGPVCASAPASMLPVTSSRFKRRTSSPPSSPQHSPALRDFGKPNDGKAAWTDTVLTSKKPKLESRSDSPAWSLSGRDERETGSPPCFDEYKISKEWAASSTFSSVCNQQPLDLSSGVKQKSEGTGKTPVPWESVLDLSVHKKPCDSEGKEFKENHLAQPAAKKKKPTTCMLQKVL
Procedure: Anti-RIZ antibodies purified from the E1A affinity column were tested for binding to RIZ and E1A. […] The E1A-affinity purified RIZ antibodies were designated “anti-ce1” for cross reacting E1A antigen.
Anti-ce1 antibodies were tested for binding to various deletion mutants of RIZ and E1A 12S in order to map the location of the ce1 epitope on each molecule.
To evaluate this possibility, an 11 amino acid peptide encompassing residues 310-320 in RIZ (ce1 peptide) [sequence] (SEQ ID NO: 7) and an overlapping 11 amino acid control peptide encompassing residues 304-314 containing the cr2 core motif of RIZ, peptide [sequence] (SEQ ID NO: 6), were synthesized by solid phase peptide synthesis and tested for their ability to block binding between anti-ce1 antibody and RIZ or E1A.

[3] = tested on: rat ovary genomic DNA; assay: filter-based DNA-binding assay
Source text: To evaluate whether the zinc finger domains of RIZ can bind to DNA, the RIZ finger motifs 1 to 3 from amino acid position 245-573 or finger 4 to 6 from amino acid position 1114-1260 were expressed as GST fusion proteins, GSTZ13 and GSTZ46, respectively. The GST-RIZ fragments were purified by glutathionine agarose chromatography (Guan and Dixon, Anal. Biochem. 192:262-267 (1991), which is incorporated herein by reference) and evaluated for binding in a filter-based DNA-binding assay (Sukegawa and Blobel, Cell 72:29-38 (1993), which is incorporated herein by reference). To obtain GSTZ46, a fragment encoding RIZ (1114-1260) was made by PCR using primers 5′-GTGGTCCAAG AAACATTC-3′ (SEQ ID NO: 17) and 5′-TCGTGTAAAG CTCTTCAG-3′ (SEQ ID NO: 18) and pCMVRIZ as template. The PCR fragment was cloned into pBKS+, then into pGEX-KG (Guan and Dixon, supra, 1991).
The filter-based DNA binding assay was performed by electrophoresing 0.5 μg of purified GST or GST-RIZ fusion proteins by SDS-PAGE and transferring the proteins to nitrocellulose. The proteins were renatured by incubating the nitrocellulose for 3 hr in binding buffer (50 mM Tris-HCl, pH 8, 100 mM KCl, 0.1% Triton X-100™, 10% glycerol, and 0.1 mM ZnCl2). ^32P-labeled, randomly sheared rat ovary genomic DNA was added to the buffer and the nitrocellulose was incubated for an additional 3 hr. […]

B1: GST-RIZ (245-573): glutathionine S-transferase fused to RIZ fragment a.a. 245-573 containing zinc fingers 1-3 (protein)
chain: CEPQPEVDGKQEVTDCEVNDVEEEELEEEEELEEEEEEELGEDGVEEADMPNESSAKEPEIRCEEKPEDLLEEPQSMSNEAREDSPDVTPPPHTPRAREEANGDVLETFMFPCQHCERKFATKQGLERHMHIHISTINHAFKCKYCGKRFGTQINRRRHERRHETGLKRRPSMTLQSSEDPDDGKGENVTSKDESSPPQLGQDCLILNSEKTSQEVLNSSFVEENGEVKELHPCKYCKKVFGTHTNMRRHQRRVHERHLIPKGVRRKGGLLEEPQPPAEQAPPSQNVYVPSTEPEEEGETDDVYIMDISSNISENLNYYIDGKIQTNSS
modifications: left off: a dimerising Fc or GST
binding to three forms of Rb having a deletion within the pocket [1]: failed to bind
inhibition of anti-RIZ antiserum binding to RIZ (245-883) [2]: inhibited
binding to 32P-labeled rat DNA ([3]; 0.5 μg protein, binding buffer with 0.1 mM ZnCl2): bound
zinc dependence of DNA binding ([3]; with ZnCl2 versus 10 mM EDTA, 2 mM DTT and no ZnCl2): Zn^++ ion dependent manner
